Here are results for one protein from patent US20060024807.

The target in data set [1] is T1, Known PK substrate sequence APRTPGGRR (p42/p44 MAP kinase substrate).
T1 chain: APRTPGGRR

Data set [2] addresses T2, Known PK substrate sequence Ac-SPGRRRRK (cdc2-kinase substrate).
T2 chain: SPGRRRRK

Data set [3] has as its target T3, Known PK substrate sequence EAAEAEPAEPSSPAAEAEGA (p42/p44 MAP kinase substrate).
T3 chain: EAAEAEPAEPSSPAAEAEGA

For data set [4], the target named is T4, Known PK substrate sequence EAIYAAPFAKKK (abl tyrosine kinase substrate).
T4 chain: EAIYAAPFAKKK

The target of data set [5] is T5, Known PK substrate sequence KKALRRQETVDAL (Ca-/calmodulin-dependent PK substrate).
T5 chain: KKALRRQETVDAL

The target in data set [6] is T6, Known PK substrate sequence KKKKEEIYFFF (csk tyrosine kinase substrate).
T6 chain: KKKKEEIYFFF

Data set [7] concerns the target T7, Known PK substrate sequence KKKLPATGDYMNMSPVGD (insulin receptor tyrosine kinase substrate).
T7 chain: KKKLPATGDYMNMSPVGD

In data set [8] the target is T8, Known PK substrate sequence KKRFSFKKSFKLSGFSFK (protein kinase C substrate).
T8 chain: KKRFSFKKSFKLSGFSFK

Data set [9] concerns the target T9, Known PK substrate sequence KKRPQRATSNVFS (myosin light chain kinase substrate).
T9 chain: KKRPQRATSNVFS

In data set [10] the target is T10, Known PK substrate sequence LMECRNSPVAKT (p42/p44 MAP kinase substrate).
T10 chain: LMECRNSPVAKT

For data set [11], the target named is T11, Known PK substrate sequence LRRASLG (cAMP-dependent protein kinase substrate).
T11 chain: LRRASLG

The target of data set [12] is T12, Known PK substrate sequence LSSLRASTSKSGGQK (S6 kinase substrate).
T12 chain: LSSLRASTSKSGGQK

Data set [13] has as its target T13, Known PK substrate sequence PKTPKKAKKL (p34 cdc-kinase substrate).
T13 chain: PKTPKKAKKL

For data set [14], the target named is T14, Known PK substrate sequence PLARTLSVAGLPGK (Ca-/calmodulin-dependent PK substrate).
T14 chain: PLARTLSVAGLPGK

The target in data set [15] is T15, Known PK substrate sequence QKRPSQRSK (protein kinase C substrate).
T15 chain: QKRPSQRSK

Data set [16] addresses T16, Known PK substrate sequence RKISASEFDRPLR (cGMP-dependent protein kinase substrate).
T16 chain: RKISASEFDRPLR

For data set [17], the target named is T17, Known PK substrate sequence RRKDLHDDEEDEAMSITA (casein kinase I substrate).
T17 chain: RRKDLHDDEEDEAMSITA

For data set [18], the target named is T18, Known PK substrate sequence RRRDDDSDDD (casein kinase II substrate).
T18 chain: RRRDDDSDDD

Data set [19] has as its target T19, Known PK substrate sequence SGQLIDSMANSFVGTRS (raf-1 kinase substrate).
T19 chain: SGQLIDSMANSFVGTRS

Data set [20] addresses T20, Known PK substrate sequence YIYGSFK (c-src tyrosine kinase substrate).
T20 chain: YIYGSFK

B1: MLSK-1 (Murine Lymph node Stromal cell Kinase 1) (protein)
chain: MESVALLQRPSQAPSASALASESARPLADGLIKSPKPLMKKQAVKRHHHKHNLRHRYEFLETLGKGTYGKVKKARESSGRLVAIKSIRKDKIKDEQDLLHIRREIEIMSSLNHPHIIAIHEVFENSSKIVIVMEYASRGDLYDYISERPRLSERDARHFFRQIVSALHYCHQNGIVHRDLKLENILLDANGNIKIADFGLSNLYHKGKFLQTFCGSPLYASPEIVNGKPYVGPEVDSWSLGVLLYILVHGTMPFDGQDHKTLVKQISNGAYREPPKPSDACGLIRWLLMVNPTRRATLEDVASHWWVNWGYTTGVGEQEALREGGHPSGDFGRASMADWLRRSSRPLLENGAKVCSFFKQHVPGGGSTVPGLERQHSLKKSRKENDMAQNLQGDPAEDTSSRPGKSSLKLPKGILKKKSSTSSGEVQEDPQELRPVPDTPGQPVPAVSLLPRKGILKKSRQRESGYYSSPEPSESGELLDASDVFVSGDPVEQKSPQASGLLLHRKGILKLNGKFSRTALEGTTPSTFGSLDQLASSHPAARPSRPSGAVSEDSILSSESFDQLDLPERLPETPLRGCVSVDNLRGLEQPPSEGLKRWWQESLGDSCFSLTDCQEVTAAYRQALGICSKLS
Turning to B1, the Phosphorylation by MLSK-1 (% of max.) was 88.6 % of max in data set [1]; 94.8 % of max in [2]; 0 % of max in data set [3]; 69.3 % of max in [4]; 20.9 % of max in data set [5]; 82.1 % of max in data set [6]. In addition, the Phosphorylation by MLSK-1 (% of max.) in data set [7] is 33.7 % of max; in [8], 100 % of max; in data set [9] it was 72 % of max; in data set [10] it was 3.8 % of max; in data set [11], 65.9 % of max; in data set [12], 66.6 % of max. Besides, the Phosphorylation by MLSK-1 (% of max.) is 82 % of max in data set [13]; 10.3 % of max in data set [14]; 75 % of max in [15]; 62.2 % of max in [16]; 14.1 % of max in data set [17]; 17.6 % of max in data set [18]. Also, the Phosphorylation by MLSK-1 (% of max.) in data set [19] was 43.1 % of max; in data set [20], 66.6 % of max.
